# ± gives the uncertainty stated by the source.
# B1: WW domain-containing transcription regulator protein 1, residues 116 to 162; numbered along this chain, Q9GZV5 (parent)
# chain: QSYDVTDELPLPPGWEMTFTATGQRYFLNHIEKITTWQDPRKAMNQP
# Variants of: B1
# Assay: abundance fitness (aPCA) (normalised: wild type 0, dead -1); higher = more abundant; growth selection in yeast, the domain comes from the species named
# Conditions: Homo sapiens
row,Variant,abundance fitness
1,K33G,0.122 ± 0.024
2,K33F,-0.683 ± 0.074
3,K33T,-0.483 ± 0.031
4,N29P,-1.11 ± 0.13
5,G23L,-1.07 ± 0.098
6,G23Q,-0.469 ± 0.059
7,L9H,-0.043 ± 0.049
8,Q38E,-0.117 ± 0.027
9,N45A,-0.018 ± 0.025
10,T6C,-0.071 ± 0.056
11,D7K,-0.041 ± 0.039
12,T36M,-0.532 ± 0.033
13,R41W,-0.689 ± 0.069
14,Q46D,0.058 ± 0.043
15,W15K,-0.784 ± 0.076
16,P40R,-0.999 ± 0.063
17,D4P,-0.071 ± 0.051
18,T6S,-0.03 ± 0.036
19,L11V,-0.381 ± 0.033
20,S2D,0.057 ± 0.03
21,P12W,-0.826 ± 0.073
22,P13F,-0.093 ± 0.047
23,P12R,-0.692 ± 0.045
24,I34R,-0.223 ± 0.029

row,Variant,abundance fitness
1,D4K,-0.014 ± 0.043
2,F27K,-0.818 ± 0.2
3,F19C,-0.274 ± 0.066
4,F19T,-0.108 ± 0.049
5,P40T,-0.857 ± 0.04
6,L9Q,0.022 ± 0.046
7,D39Y,-0.709 ± 0.068
8,P47L,0.053 ± 0.48
9,T20W,-1 ± 0.052
10,D39R,-0.452 ± 0.031
11,T22E,-0.028 ± 0.031
12,V5M,-0.026 ± 0.035
13,E8R,-0.109 ± 0.04
14,Q1I,0.001 ± 0.38
15,Q24R,-0.222 ± 0.04
16,W37D,-0.481 ± 0.057
17,F19D,-0.319 ± 0.046
18,P40F,-1.09 ± 0.4
19,W37V,-0.348 ± 0.034
20,E8W,-0.78 ± 0.062
21,P13M,-0.168 ± 0.04
22,L28K,0.128 ± 0.067
23,F27R,-0.761 ± 0.033
24,P40C,-0.92 ± 0.17

row,Variant,abundance fitness
1,N45D,-0.092 ± 0.055
2,D39C,-0.572 ± 0.066
3,P40Q,-0.774 ± 0.053
4,Q38P,-0.879 ± 0.073
5,I31F,-0.14 ± 0.16
6,Q38G,-0.264 ± 0.028
7,G14R,-0.583 ± 0.036
8,A21H,-0.108 ± 0.058
9,L11T,-0.548 ± 0.042
10,E32D,-0.072 ± 0.045
11,G23K,-0.412 ± 0.061
12,Y3Q,-0.2 ± 0.031
13,D4N,0.053 ± 0.033
14,G23W,-0.964 ± 0.054
15,Q24W,-0.82 ± 0.045
16,T6E,-0.216 ± 0.041
17,E8T,0.01 ± 0.047
18,T35D,-0.728 ± 0.067
19,H30G,-0.3 ± 0.027
20,R25K,-0.016 ± 0.044
21,K42H,-0.061 ± 0.057
22,T36L,-1.02 ± 0.1
23,T22F,-0.35 ± 0.045
24,T18Q,0.045 ± 0.051

row,Variant,abundance fitness
1,A43C,-0.056 ± 0.035
2,D39L,-0.599 ± 0.042
3,W37M,-0.265 ± 0.041
4,T22M,-0.277 ± 0.05
5,R41N,-0.505 ± 0.064
6,K33M,-0.284 ± 0.038
7,N45G,-0.04 ± 0.031
8,L28W,-0.426 ± 0.035
9,V5Y,-0.354 ± 0.081
10,K33S,-0.177 ± 0.029
11,T36Y,-0.992 ± 0.21
12,P47N,-0.84 ± 0.32
13,S2K,-0.074 ± 0.065
14,G23C,-0.79 ± 0.031
15,P40D,-0.914 ± 0.14
16,S2W,-0.406 ± 0.062
17,M44N,-0.215 ± 0.09
18,D7S,-0.104 ± 0.038
19,Y3C,0.262 ± 0.1
20,I34H,-0.324 ± 0.059
21,L9T,0.117 ± 0.045
22,H30V,-0.226 ± 0.025
23,L9D,0.028 ± 0.025
24,I34Y,-0.172 ± 0.054

row,Variant,abundance fitness
1,F27N,-0.859 ± 0.096
2,V5Q,-0.145 ± 0.046
3,T35Q,-0.675 ± 0.069
4,M17S,-0.102 ± 0.026
5,T35L,-0.7 ± 0.044
6,W37K,-0.305 ± 0.026
7,I31P,-0.331 ± 0.23
8,E8C,-0.163 ± 0.057
9,P12V,-0.921 ± 0.091
10,A43M,-0.038 ± 0.059
11,D39F,-0.618 ± 0.059
12,E16F,-0.326 ± 0.046
13,E16Q,-0.035 ± 0.069
14,M17C,-0.035 ± 0.032
15,Q46V,-0.018 ± 0.028
16,L9E,-0.028 ± 0.034
17,R41I,-0.603 ± 0.094
18,A21Y,-0.299 ± 0.031
19,F19L,-0.115 ± 0.031
20,D39M,-0.789 ± 0.072
21,G23T,-0.918 ± 0.073
22,R25F,-0.451 ± 0.073
23,P10S,-0.109 ± 0.025
24,R25Y,-0.246 ± 0.065

row,Variant,abundance fitness
1,F19G,-0.425 ± 0.027
2,N45I,-0.084 ± 0.056
3,L11E,-0.767 ± 0.068
4,E32M,0.072 ± 0.045
5,Q24C,-0.305 ± 0.056
6,W15Q,-0.5 ± 0.071
7,S2Y,-0.226 ± 0.07
8,L11N,-0.789 ± 0.13
9,I34F,0.014 ± 0.026
10,T20R,-0.65 ± 0.041
11,V5I,0.029 ± 0.036
12,V5H,-0.231 ± 0.059
13,P10R,-0.224 ± 0.028
14,M17Q,0.037 ± 0.044
15,L11W,-0.686 ± 0.033
16,H30E,-0.167 ± 0.041
17,T22S,-0.058 ± 0.033
18,F19S,-0.106 ± 0.041
19,R41E,-0.73 ± 0.05
20,E8N,-0.128 ± 0.056
21,P13G,-0.136 ± 0.025
22,M17Y,-0.264 ± 0.044
23,V5T,0.011 ± 0.044
24,R25G,-0.37 ± 0.03

row,Variant,abundance fitness
1,W15E,-0.689 ± 0.076
2,T20S,-0.115 ± 0.041
3,T35H,-0.56 ± 0.039
4,D39E,-0.536 ± 0.077
5,M44Y,0.014 ± 0.042
6,N29M,-1.02 ± 0.046
7,D7N,-0.041 ± 0.032
8,G23V,-0.925 ± 0.042
9,T18K,0.097 ± 0.031
10,I31A,-0.174 ± 0.068
11,E16L,-0.364 ± 0.046
12,K42N,0.045 ± 0.05
13,F19W,-0.021 ± 0.027
14,F19M,-0.185 ± 0.047
15,Y26E,-0.586 ± 0.065
16,R25H,-0.385 ± 0.069
17,L9K,-0.064 ± 0.048
18,Q24I,-0.226 ± 0.11
19,T36Q,-0.376 ± 0.051
20,M44L,-0.012 ± 0.03
21,T18G,0.018 ± 0.028
22,A21N,0.019 ± 0.048
23,A43G,-0.013 ± 0.031

# Source: the Human Domainome abundance scans (Beltran et al. 2025)
